For this test, the target named is Prunus persica WEEP protein (PpeWEEP), 6xHis-MBP-PpeWEEP-StrepTagII fusion protein (Prunus persica (peach)). The test can be described thus: SEC. On the technique in general: In gel filtration, larger molecules generally elute earlier.

What is called stoichiometry N is the number of molecules, sites or subunits per partner or assembly. “Prunus persica WEEP protein (PpeWEEP), 6xHis-MBP-PpeWEEP-StrepTagII fusion protein (natural protein)” showed a stoichiometry N of 8.7 mer.

The values are drawn from publication PMC10245973.
